Drawing on patent US9090549B2, “1,4-naphthoquinones derivatives and therapeutic use thereof” (CENTRE NATIONAL DE LA RECHERCHE SCIENTIFIQUE (C.N.R.S.), priority 2008, dated 2015), this text covers Km for one protein.

Substrate in this data set: CC1=C(C(=O)c2ccc(Br)cc2)C(=O)C2C=CC=CC2C1=O
Kind of data set: 1,4-Naphthoquinone reductase activity of P. falciparum glutathione reductase. Format: biochemical, Plasmodium falciparum. As to conditions: other: pH 6.9, 100 μM NADPH, 1% DMSO.

Protocol: The reduction assay mixture consisted of 100 mM potassium phosphate buffer pH 6.9, 200 mM KCl, 1 mM EDTA and 100 μM NADPH in a total volume of 1 mL. 1,4-naphthoquinone reductase activity was determined by recording the initial velocities in the presence of increasing naphthoquinone concentrations (0-300 μM). The 1,4-naphthoquinone was first dissolved in DMSO, and a final 1% DMSO concentration was kept constant in the 1,4-naphthoquinone reductase assay. For the determination of KM and Vmax values, the steady-state rates were fitted by using nonlinear regression analysis software (Kaleidagraph) to the Michaelis-Menten equation. From these values, the turnover number kcat and the catalytic efficiency kcat/KM were calculated.

B1: P. falciparum glutathione reductase (PfGR) (Plasmodium falciparum K1) (protein)
chain: VYDLIVIGGGSGGMAAARRAARHNAKVALVEKSRLGGTCVNVGCVPKKIMFNAASVHDILENSRHYGFDTKFSFNLPLLVERRDKYIQRLNNIYRQNLSKDKVDLYEGTASFLSENRILIKGTKDNNNKDNGPLNEEILEGRNILIAVGNKPVFPPVKGIENTISSDEFFNIKESKKIGIVGSGYIAVELINVIKRLGIDSYIFARGNRILRKFDESVINVLENDMKKNNINIVTFADVVEIKKVSDKNLSIHLSDGRIYEHFDHVIYCVGRSPDTENLKLEKLNVETNNNYIVVDENQRTSVNNIYAVGDCCMVKKSKEIEDLNLLKLYNEERYLNKKENVTEDIFYNVQLTPVAINAGRLLADRLFLKKTRKTNYKLIPTVIFSHPPIGTIGLSEEAAIQIYGKENVKIYESKFTNLFFSVYDIEPELKEKTYLKLVCVGKDELIKGLHIIGLNADEIVQGFAVALKMNATKKDFDETIPIHPTAAEEFLTLQPWMK
On to B1, for which the Michaelis constant (Km) (usually the substrate concentration at which the rate is half of its maximum) was 6.1 µM.
